# Measured values published in PMC4950607.
# Tested on: RsmA (His6-Thb-RsmA) (Pseudomonas aeruginosa)
# Assay: EMSA
# Settings: 17 nt 3' extension hybridized to DNA primer
substance,measurement,value
"RsmW sRNA, 3'-extended, labeled",Kd,11.5 nM
